Measured values from PMC4914107 (Nucleic Acids Research, 2016).

Assays:
Assay in all cases: EMSA
[1] = molecular target: T1, 2XMBP-BRC1-4-DBD (Homo sapiens, UniProt P51587;P51587 993-1589;2153-3418)
T1 chain 1: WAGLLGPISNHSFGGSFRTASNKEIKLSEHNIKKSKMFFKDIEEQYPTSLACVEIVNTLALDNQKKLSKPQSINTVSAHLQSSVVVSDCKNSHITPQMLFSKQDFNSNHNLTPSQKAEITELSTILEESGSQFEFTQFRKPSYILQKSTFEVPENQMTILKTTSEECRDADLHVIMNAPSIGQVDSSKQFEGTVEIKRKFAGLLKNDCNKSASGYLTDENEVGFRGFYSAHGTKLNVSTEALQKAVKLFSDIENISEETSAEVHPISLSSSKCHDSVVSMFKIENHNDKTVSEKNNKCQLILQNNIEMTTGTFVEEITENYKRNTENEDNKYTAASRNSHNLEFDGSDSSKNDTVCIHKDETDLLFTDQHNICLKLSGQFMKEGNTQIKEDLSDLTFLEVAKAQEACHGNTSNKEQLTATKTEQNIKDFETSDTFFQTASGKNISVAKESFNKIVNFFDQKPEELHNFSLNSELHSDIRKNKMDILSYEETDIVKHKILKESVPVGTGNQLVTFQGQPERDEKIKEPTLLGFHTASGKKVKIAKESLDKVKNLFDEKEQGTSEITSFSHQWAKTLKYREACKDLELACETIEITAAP
T1 chain 2: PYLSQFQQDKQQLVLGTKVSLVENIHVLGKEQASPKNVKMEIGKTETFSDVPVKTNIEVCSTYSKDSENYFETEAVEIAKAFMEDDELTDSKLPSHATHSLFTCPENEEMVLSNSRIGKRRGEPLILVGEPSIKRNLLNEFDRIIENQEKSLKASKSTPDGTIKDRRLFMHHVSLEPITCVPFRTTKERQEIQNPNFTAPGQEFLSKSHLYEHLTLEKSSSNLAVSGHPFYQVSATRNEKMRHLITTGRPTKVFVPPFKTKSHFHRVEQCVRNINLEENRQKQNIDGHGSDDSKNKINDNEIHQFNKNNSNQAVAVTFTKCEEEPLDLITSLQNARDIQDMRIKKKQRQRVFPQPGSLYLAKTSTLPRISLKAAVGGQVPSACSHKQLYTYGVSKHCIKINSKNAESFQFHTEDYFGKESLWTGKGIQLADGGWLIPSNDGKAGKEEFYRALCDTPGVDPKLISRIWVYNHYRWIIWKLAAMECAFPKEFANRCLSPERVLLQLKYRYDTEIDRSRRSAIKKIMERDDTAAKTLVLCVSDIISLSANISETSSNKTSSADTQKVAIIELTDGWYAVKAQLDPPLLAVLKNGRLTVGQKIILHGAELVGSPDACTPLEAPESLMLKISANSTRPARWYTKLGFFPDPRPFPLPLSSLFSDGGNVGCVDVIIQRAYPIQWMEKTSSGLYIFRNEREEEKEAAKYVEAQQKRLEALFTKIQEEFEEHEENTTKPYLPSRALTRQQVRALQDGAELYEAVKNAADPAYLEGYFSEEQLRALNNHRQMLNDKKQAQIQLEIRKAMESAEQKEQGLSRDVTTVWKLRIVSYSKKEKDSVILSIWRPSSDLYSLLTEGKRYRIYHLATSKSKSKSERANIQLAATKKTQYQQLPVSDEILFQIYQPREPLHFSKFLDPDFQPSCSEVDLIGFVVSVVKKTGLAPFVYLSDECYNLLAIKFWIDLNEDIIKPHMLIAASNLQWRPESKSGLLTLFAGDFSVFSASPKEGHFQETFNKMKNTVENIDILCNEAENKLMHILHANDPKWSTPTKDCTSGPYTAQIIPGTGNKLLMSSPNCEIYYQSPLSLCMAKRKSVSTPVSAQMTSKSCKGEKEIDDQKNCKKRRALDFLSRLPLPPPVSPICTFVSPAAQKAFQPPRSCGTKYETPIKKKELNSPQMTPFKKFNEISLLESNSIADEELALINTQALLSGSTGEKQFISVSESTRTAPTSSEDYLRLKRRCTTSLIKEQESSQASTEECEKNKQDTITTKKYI

[2] = molecular target: 2XMBP-BRC1-8-DBD (Homo sapiens, UniProt P51587 993-3418)
[3] = molecular target: T2, 2XMBP-BRC4-DBD (Homo sapiens, UniProt P51587;P51587 1496-1589;2153-3418)
T2 chain 1: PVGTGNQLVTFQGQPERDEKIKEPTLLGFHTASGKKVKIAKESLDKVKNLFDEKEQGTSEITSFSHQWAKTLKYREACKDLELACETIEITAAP
T2 chain 2: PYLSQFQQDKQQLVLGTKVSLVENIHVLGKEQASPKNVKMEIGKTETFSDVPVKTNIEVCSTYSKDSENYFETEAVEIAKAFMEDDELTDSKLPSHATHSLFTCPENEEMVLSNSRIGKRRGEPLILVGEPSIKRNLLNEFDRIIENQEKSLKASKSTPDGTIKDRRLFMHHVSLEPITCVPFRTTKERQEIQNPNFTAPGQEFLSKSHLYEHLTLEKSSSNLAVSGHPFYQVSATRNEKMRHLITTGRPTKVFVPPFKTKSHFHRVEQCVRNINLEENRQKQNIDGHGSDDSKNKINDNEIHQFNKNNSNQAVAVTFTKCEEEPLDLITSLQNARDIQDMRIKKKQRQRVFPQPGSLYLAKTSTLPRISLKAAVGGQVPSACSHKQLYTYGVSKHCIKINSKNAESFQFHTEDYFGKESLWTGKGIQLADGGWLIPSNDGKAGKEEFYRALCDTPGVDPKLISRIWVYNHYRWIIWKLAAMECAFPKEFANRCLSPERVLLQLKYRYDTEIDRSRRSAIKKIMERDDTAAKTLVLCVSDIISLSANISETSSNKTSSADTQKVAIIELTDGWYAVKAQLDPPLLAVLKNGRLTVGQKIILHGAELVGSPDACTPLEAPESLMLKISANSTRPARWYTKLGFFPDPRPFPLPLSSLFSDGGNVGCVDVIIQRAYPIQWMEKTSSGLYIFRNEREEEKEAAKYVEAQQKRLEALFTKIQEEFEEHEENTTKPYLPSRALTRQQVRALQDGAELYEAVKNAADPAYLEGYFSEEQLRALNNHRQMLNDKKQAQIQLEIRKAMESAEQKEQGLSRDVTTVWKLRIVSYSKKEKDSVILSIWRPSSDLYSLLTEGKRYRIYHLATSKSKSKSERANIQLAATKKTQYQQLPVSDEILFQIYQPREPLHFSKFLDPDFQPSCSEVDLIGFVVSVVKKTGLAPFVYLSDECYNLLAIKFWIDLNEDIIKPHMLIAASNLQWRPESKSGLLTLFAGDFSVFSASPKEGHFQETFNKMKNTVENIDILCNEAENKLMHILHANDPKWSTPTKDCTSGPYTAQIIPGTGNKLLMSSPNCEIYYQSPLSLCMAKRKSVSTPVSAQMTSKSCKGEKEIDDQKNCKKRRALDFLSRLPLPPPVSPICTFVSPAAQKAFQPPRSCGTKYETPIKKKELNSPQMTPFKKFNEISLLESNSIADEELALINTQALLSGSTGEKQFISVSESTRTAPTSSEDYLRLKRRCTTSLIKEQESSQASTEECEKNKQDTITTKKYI

[4] = molecular target: T3, 2XMBP-BRCA2 DBD (Homo sapiens, UniProt P51587 2153-3418)
T3 sequence: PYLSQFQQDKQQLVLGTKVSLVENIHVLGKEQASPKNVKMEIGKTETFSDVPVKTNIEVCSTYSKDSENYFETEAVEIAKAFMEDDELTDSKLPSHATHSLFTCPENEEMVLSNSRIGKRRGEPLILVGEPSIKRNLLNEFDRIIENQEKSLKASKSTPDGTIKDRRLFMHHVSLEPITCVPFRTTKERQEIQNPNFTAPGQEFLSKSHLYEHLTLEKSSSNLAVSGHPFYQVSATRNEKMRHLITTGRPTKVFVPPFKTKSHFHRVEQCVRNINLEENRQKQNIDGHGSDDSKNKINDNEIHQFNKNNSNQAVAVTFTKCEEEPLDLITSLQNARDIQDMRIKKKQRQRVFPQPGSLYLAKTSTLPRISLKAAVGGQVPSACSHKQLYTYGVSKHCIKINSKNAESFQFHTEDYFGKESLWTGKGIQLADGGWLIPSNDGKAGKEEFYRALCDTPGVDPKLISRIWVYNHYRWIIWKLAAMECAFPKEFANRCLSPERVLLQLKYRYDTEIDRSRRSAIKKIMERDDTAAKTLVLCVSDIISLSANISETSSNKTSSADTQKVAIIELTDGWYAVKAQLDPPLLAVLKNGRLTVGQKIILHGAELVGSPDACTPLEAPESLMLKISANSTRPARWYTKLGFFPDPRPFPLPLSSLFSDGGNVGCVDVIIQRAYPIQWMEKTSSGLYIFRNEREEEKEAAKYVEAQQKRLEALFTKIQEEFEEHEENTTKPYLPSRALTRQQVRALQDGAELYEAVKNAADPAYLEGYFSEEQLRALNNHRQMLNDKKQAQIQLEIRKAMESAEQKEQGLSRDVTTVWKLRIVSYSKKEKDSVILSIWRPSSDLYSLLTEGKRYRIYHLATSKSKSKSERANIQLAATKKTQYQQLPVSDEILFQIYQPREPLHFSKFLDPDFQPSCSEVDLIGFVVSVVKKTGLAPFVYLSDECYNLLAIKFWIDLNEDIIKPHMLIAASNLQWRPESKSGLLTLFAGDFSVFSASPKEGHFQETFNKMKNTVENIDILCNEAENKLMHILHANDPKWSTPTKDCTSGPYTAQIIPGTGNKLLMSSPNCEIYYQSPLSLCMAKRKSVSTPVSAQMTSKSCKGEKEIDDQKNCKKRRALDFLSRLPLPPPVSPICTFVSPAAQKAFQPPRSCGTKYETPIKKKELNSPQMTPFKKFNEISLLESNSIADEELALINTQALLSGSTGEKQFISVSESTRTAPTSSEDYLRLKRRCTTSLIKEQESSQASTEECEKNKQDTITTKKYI

[5] = molecular target: 2XMBP-BRC5-8-DBD (Homo sapiens, UniProt P51587 1596-3418)

Measured: binding result

B1: 3' tail DNA (RJ-167-mer / RJ-PHIX-42-1) (mixed)
DNA 1: CTGCTTTATCAAGATAATTTTTCGACTCATCAGAAATATCCGTTTCCTATATTTATTCCTATTATGTTTTATTCATTTACTTATTCTTTATGTTCATTTTTTATATCCTTTACTTTATTTTCTCTGTTTATTCATTTACTTATTTTGTATTATCCTTATCTTATTTA
DNA 2: CGGATATTTCTGATGAGTCGAAAAATTATCTTGATAAAGCAG
binds: all assays above
